# The DeepSol protein solubility set
# Experiment: soluble on expression in E. coli; label from the status in PepcDB or PDB records
row,Sequence,soluble on expression in E. coli
1,MDSEGASSESSSSGDQLEKWTEEQDELKKKLIAYDDFTWKLSSSTELSQGSEILKYVGGVDMSFCKEDSSVACACLVVLELPSLRVVHHDFSLLRLHVPYVPGFLAFREAPVLLQILQKMRDEKHPFYPQVLMVDGNGILHPRGFGLACHLGVLAHLPTIGVGKNLHHVDGLNQSEVKQSLQLQINEHEQTITLVGNSGITWGVGFRPTLSSLKPIYVSVGHRISLDSAVEVVKITCKYRVPEPIRQADIRSRAYLQKHQTESFKELAVRPPDQTEP,soluble
2,MAIIRQRYQEQLDDLIKELRRLGANVYVSIENGIKSLSIDDRGFARQTVKNDKHINQLNYDINERVIMLITKQQPIASDLRMMISSLKIASDLERIGDNASSIANIRLRTKITDDYVLTRLKTMGKLAMLMLKDLDQAFKKKDTVLIREIIERDEDIDDLYSHIINATYLIDNDPFVAAQAHLAARHLERIGDHIINIAESVYFYLTGTHYEQ,not soluble
3,MGHHHHHHSHMTQDRPLLAVQEALKKCFPVVEEQQGLWQSALRDCQPLLSSLSNLAEQLQAAQNLRFEDVPALRAFPDLKERLRRKQLVAGDIVLDKLGERLAILLKVRDMVSSHVERVFQIYEQHADTVGIDAVLQPSAVSPSVADMLEWLQDIERHYRKSYLKRKYLLSSIQWGDLANIQALPKAWDRISKDEHQDLVQDILLNVSFFLEE,not soluble
4,MAHHHHHHMVTVPKLQAMREAGEKIAMLTSYDASFAALLDRANVDVQLIGDSLGNVLQGQATTLPVTLDDIAYHTACVARAQPRGLVVADLPFGTYGTPADAFASAVKLMRAGAQMVKLEGGEWLAETVRFLVERAVPVCAHVGLTPQSVHAFGGFKVQGKTEAGAAQLLRDARAVEEAGAQLIVLEAVPTLVAAEVTRELSIPTIGIGAGAECSGQVLVLHDMLGVFPGKRPRFVKDFMQGQPSIFAAVEAYVRAVKDGSFPGPEHSF,soluble
5,MVGDGIAKFIPEGFDAQKIPSFAIEKEPREQGALPADWVLVPEFSLTDGKANASLTVPEGTSIYGGGEVTGSLLRNGKTIKLWNTDSGAYGVDKGTRLYQSHPWMMGVRKDGTAFGILFDTTWKAELSSTDEKIELKSEGIPFRVFIIDRESPQAVIRGLSELTGTMPMIPRWALGYQQCRFSYSPDSRVIEIADTFRLKRIPCDVIWMDIDYMDGYRIFTFNPKSFPNPKAVNRDLHIRGFHSAWMIDPGAKVDPNYFVYKSGTENDVWVKTADGKNFHGDAWPGAAAFPDFTSPKVNKWWRNLYKDFLAQGVDGVWNDVNEPQINDTPNKTMPEDNLHRGGGKLPAGTHLQYHNVYGFLMVKASREGILDARPEKRPFILTRSNFLGGQRYAATWTGDNGSCWDHLKMSVPMSLTLGLSGQPFSGADIGGFLFNADADLFGNWIGFGAFYPFARGHACAGTNNKEPWVFGQKVEDASRIALERRYILLPYFYTLLHEASTNGMPIMRPVFFSDPKDLSLRAEEEAFLVGDNLLIIPAFANQPALPKGIWKELSLVEGDQNDKYQAKMKIRGGAIIPTGKIIQNTTENSLDPLTLLVCLDEQGKASGNMYWDAGDGWSYKKGDYSLLQFVAERNGDKVTVKLTKKTGKYNTENKDMAVIKIITDQGIRQASGNLVEGIEIRL,not soluble
6,RPLFAREGGIYAVLVCMQEYKTSVLVQQAGLAALKMLAVASSSEIPTFVTGRDSIHSLFDAQMTREIFASIDSATRPGSESLLLTVPAAVILMLNTEGCSSAARNGLLLLNLLLCNHHTLGDQIITQELRDTLFRHSGIAPRTEPMPTTRTILMMLLNRYSEPPGSPERAALETPIIQGQDGSPELLIRSLVGGPSAELLLDLERVLCREGSPGGAVRPLLKRLQQETQPFLLLLRTLDAPGPNKTLLLSVLRVITRLLDFPEAMVLPWHEVLEPCLNCLSGPSSDSEIVQELTCFLHRLASMHKDYAVVLCCLGAKEILSKVLDKHSAQLLLGCELRDLVTECEKYAQLYSNLTSSILAGCIQMVLGQIEDHRRTHQPINIPFFDVFLRHLCQGSSVEVKEDKCWEKVEVSSNPHRASKLTDHNPKTYWESNGSTGSHYITLHMHRGVLVRQLTLLVASEDSSYMPARVVVFGGDSTSCIGTELNTVNVMPSASRVILLENLNRFWPIIQIRIKRCQQGGIDTRVRGVEVLGPKPTFWPLFREQLCRRTCLFYTIRAQAWSRDIAEDHRRLLQLCPRLNRVLRHEQNFADRFLPDDEAAQALGKTCWEALVSPLVQNITSPDAEGVSALGWLLDQYLEQRETSRNPLSRAASFASRVRRLCHLLVHVEPPPGPSPEPSTRPFSKNSKGRDRSPAPSPVLPSSSLRNITQCWLSVVQEQVSRFLAAAWRAPDFVPRYCKLYEHLQRAGSELFGPRAAFMLALRSGFSGALLQQSFLTAAHMSEQFARYIDQQIQGGLIGGAPGVEMLGQLQRHLEPIMVLSGLELATTFEHFYQHYMADRLLSFGSSWLEGAVLEQIGLCFPNRLPQLMLQSLSTSEELQRQFHLFQLQRLDKLFLEQEDEEEKRLEEEEEEEEEEEAEKELFIEDPSPAISILVLSPRCWPVSPLCYLYHPRKCLPTEFCDALDRFSSFYSQSQNHPVLDMGPHRRLQWTWLGRAELQFGKQILHVSTVQMWLLLKFNQTEEVSVETLLKDSDLSPELLLQALVPLTSGNGPLTLHEGQDFPHGGVLRLHEPGPQRSGEALWLIPPQAYLNVEKDEGRTLEQKRNLLSCLLVRILKAHGEKGLHIDQLVCLVLEAWQKGPNPPGTLGHTVAGGVACTSTDVLSCILHLLGQGYVKRRDDRPQILMYAAPEPMGPCRGQADVPFCGSQSETSKPSPEAVATLASLSCLQAAP,soluble
7,MGSDKIHHHHHHMGVEHMRGFSNEIILKRTLTLSDFTLRYHKRGITALQVIKAPSVSNVPVLLSGDNYGYFVMWDLVTKRPITHIEIEGNSHIIAFWWVETTNVLYILSKDSMLRIFELDSSTQLSIDLVRKLSQANKTDHLQWTKIYEMPINTLNFANFIIEAEVKPTKDNKSYRLVCCHTDDSETIDIYQIIEDSTFKLKRPFNNINFPRFLKQQNFLGISKDSKFGIIMRFAKLNDVIFLGYENGFVVGFKITFDEGLQRDIAELVHVSNDHYPNPILDMCVSGDELYSCSTDDFITKYKIPVNLQLETKYLRDDALLIKCPSSLRVSEPSKVHLPLKNIGHIDKVKDDYLVVSSWSGMTIVYNMRTSEVEQTFVKSKNNLVVSDSSMGDLTNGSGSNTESSSKSHNYKVGAMTCLESFDVQSDGLRLGQLRRIKALAKCNWCLIGYEDGTIKLNKI,not soluble
8,GSHMTALDWRSALTADEQRSVRALVTATTAVDGVAPVGEQVLRELGQQRTEHLLVAGSRPGGPIIGYLNLSPPRGAGGAMAELVVHPQSRRRGIGTAMARAALAKTAGRNQFWAHGTLDPARATASALGLVGVRELIQMRRPLRDIPEPTIPDGVVIRTYAGTSDDAELLRVNNAAFAGHPEQGGWTAVQLAERRGEAWFDPDGLILAFGDSPRERPGRLLGFHWTKVHPDHPGLGEVYVLGVDPAAQRRGLGQMLTSIGIVSLARRLGGRKTLDPAVEPAVLLYVESDNVAAVRTYQSLGFTTYSVDTAYALAGTDN,soluble
9,SNAMLDITTITRQNVTSVVGYYSDAKDDYYSKDSSFTSWQGTGAEALGLSGDVESARFKELLVGEIDTFTHMQRHVGDAKKERLGYDLTFSAPKGVSMQALIHGDKTIIEAHEKAVAAAVREAEKLAQARTTRQGKSVTQNTNNLVVATFRHETSRALDPDLHTHAFVMNMTQREDGQWRALKNDELMRNKMHLGDVYKQELALELTKAGYELRYNSKNNTFDMAHFSDEQIRAFSRRSEQIEKGLAAMGLTRETADAQTKSRVSMATREKKTEHSREEIHQEWASRAKTLGIDFDNREWQG,soluble
10,MVLPLSLLKTAQNHPMLVELKNGETYNGHLKACDSWMNIHLVDVIFTSKDGDKFFKMSEAYVRGSTIKYLRIPETVVDLVKTEVNEVRRQQQREQSRGRGGGRGGRGGHRGGGGNRGGRGGAR,not soluble
11,MHGESPIKRRESRKIWVGSVPVGGDAPIAVQSMTNSDTNDVAATVAQINRLEAAGVDIVRISVPDMDAAEAFGRIKQLVKVPLVADIHFDYRIALRVAELGVDCLRINPGNIGREDRVRAVVDAARDRGIPIRIGVNAGSLEKDLQKKYGEPTPEALVESALRHVEHLERLNFKDFKVSVKASDVFMAVAAYRLLAKQIVQPLHLGITEAGGLRSGTVKSAVGLGMLLAEGIGDTIRISLAADPVEEVKVGYDILKSLRLRSRGINFIACPSCSRQNFDVVKTMNELEGRLEDLLVPLDVAVIGCVVNGPGEAKEAHIGLTGGTPNLIYIDGKPAQKLTNDNLVDELERLIREKAAEKTAADASVIVRGLEHHHHHH,not soluble
12,MKTWLTTLILSLSTLGLAHADVATTQQNLKKNFPEIPVSAVNTTPVKGVYEVITEGQIVYTNDDAQYFFVGNLVDPKNQRNLTAERMQQLNKIDVSTLPLNQAIKHVKGNGKRTLYIFSDPDCPYCQRLEKELTAVDNVTIYLFLFPLTTLHPNAETIATQIWCSKNQYQAWQDYLLNHKAPTASQKCSTPIQKNLALGQKLNINGTPTMYLKNGERIAGAMQAGQLNTLLDQAQ,not soluble
13,PFEPLITAVIETSLNTLIKDDPALGRRLARLKGQVIQVHLKEIDKTLTFVFSQQIDVLGNYEGQPDCYLSLNLSVLPELRDQANITRLIKQDKLELEGDIQLAQKFSQLMTDCKPDIEEWLSRVTGDVVAHTLVQGTKNVGGFFVSQAEKHQRHLAQVVTEEWKLAPAPLEVAYFCDQVDEVRSQASRVEARLNALLSKVGSDKPA,not soluble
14,AHHHHHHGSPITKVTRNYQITIPAEIRKALGIKEGELLEVRLENGKIIIERLKKERKTLKLGKKLTLEEIEKAIEEGMKQCMQMHAVIDTNVLIYDTFSDSEFHKESRSLLNSLDRWYIPSIVLQEYVWFFRSQGFSSREAKIMLSEYISDPRFRGLVEDHNVILRAIDILERENLSLSRFNDMIILVHAIEKGTLATFDQKLRKLARKLSVEILP,soluble
15,DWVIPPINLPENSRGPFPQELVRIRSDRDKNLSLRYSVTGPGADQPPTGIFIINPISGQLSVTKPLDRELIARFHLRAHAVDINGNQVENPIDIVINVIDMNDNRPEFLHQVWNGSVPEGSKPGTYVMTVTAIDADDPNALNGMLRYRIVSQAPSTPSPNMFTINNETGDIITVAAGLDREKVQQYTLIIQATDMEGNPTYGLSNTATAVITVTD,soluble
16,MGSDKIHHHHHHMRINHNISALNAWRNISQTQYSMSKTLERLSSGLRINRAGDDAAGLAISEKMRGQIKGLNMAIKNAQDAISLIQTAEGALTEVHSILQRMRELAVQAASDTNTDVDREQIQKEIDQLREEIDRIARTTEFNTKKLLDGKLESFRSQVDAKVVTGGNINVQLGSVSSAAVEGTYVIEVGQFNGAETSELDVKITLFTAGGYSTTVVTITVGSATVGNINFTWDTDVLSINDFGGALPKNEVVDSAVVRVEAIYTSASQLIFQIGANEGHNMVAGIDDMSAAALGLTTVSLDVTTQDAAERAIMVVDAAIHRVSTARAALGAVQNRLEHTISNLGVAAENLTAAESRIRDADMAKEMMEFTKQQILLQSSMAMLAQSNTLPQNVLQLMR,not soluble
17,MEEEFSMFIMSMSNSMSSLWPAPIEMDSIDEGTENVANIASRWSTCCNIIRLHIEQMIGCEVDVAVAKSTDLGVSMTRGNSDSKLEPISTLLSTISKTIESNGEANAEFAIREIEKMNKSCETEYKIKKFHWFIDVEMFLNIKLALLDREFPPNLTVYVIGELKTLYDDYEAAKEVATNFERSSVNLRFLLCPADLKELNREIIAEKRQKMSEKEIICRFGSDKFKIKLFKKQKIGSHVTLIDSISFLGFLPEIELCRQGFLGSKRSNKLKMDITTDSKLGNKILFSLSQYLLNETKRPQTALFSFSSKPKLRGFCIMVAYESENDETSITLIQLKASLGKCLWKTLKFVNQSGEHSRPLPDDSYEQIAPIERKQLKRRLSRIERIASSVEEKRAQFEAFAREYDALDARDAFMKFTSTWQTDQGLLTAPTPFEDDNNNK,not soluble
